Assay results taken from patent US20260202410A1 (NORDIC BIOSCIENCE A S, published 2026).

T1: elongated peptide QRAFNKGPDPG
T1 construct: also called elongated selection peptide
T1 peptide: QRAFNKGPDPG

T2: truncated peptide QRAFNKGPD
T2 construct: also called truncated selection peptide
T2 peptide: QRAFNKGPD

T3: non-sense coating and standard peptide DQAAGGLRQH
T3 construct: also called non-sense peptide; non-sense standard peptide
T3 peptide: DQAAGGLRQH

B1: standard peptide QRAFNKGPDP (PRO-C9 target sequence, C-terminus of type IX collagen alpha-1 chain) (peptide)
peptide: QRAFNKGPDP
notes: Synthetic peptide from Genscript with a free C-terminus; also called selection peptide
B2: monoclonal antibody clone NBH313 #46 9H11-1D9-2B6 (antibody, V domains shown)
VH: EVQLVESGGGLVQPKGSLKLSCAASGFTFNIYTMNWVRQAPGKGLEWVARIRSKSENYATYYADSVKDRFTISRDDSQSILYLQMNNLKTEDTAIYYCVRQGIYYDYYGAMDYWGQGTSVTVSS
VL: NIMMTQSPSSLAVSAGEKATMSCKSSQSLLYSSNQMNYLAWYQQKPGQSPKLLIYWASTRESDVPDRFTGSGSGTDFTLTISSVQTEDLAVYYCHQYFSSRTFGGGTKLEIKR
notes: Mouse (Balb/C) hybridoma monoclonal antibody; also called PRO-C9 antibody; the mAb

Experiments:
[1] = molecular target: B2; assay: competitive CLIA: free standard peptide against coated Biotin-… for HRP-labelled antibody
Protocol: (§1) Next, 20 μL/well of standard peptide (100 ng/mL) and samples were added to the appropriate wells, followed by the addition of 100 μL/well of HRP-labelled antibody diluted in assay buffer to the concertation of 100 ng/mL and incubated for 20 h at 4° C. with constant shaking (300 rpm) in darkness. After each incubation step, wells were washed with standard washing buffer (20 mM Tris, 50 mM NaCl, pH 7.2). The chemiluminescence substrate (Roche, BM Chemiluminescence ELISA substrate (POD), Basel, Switzerland) working solutions were mixed 15 min before use and 100 μL/well were added to plate and incubated for 3 min at 20° C. with constant shaking (300 rpm) in darkness. The relative light units were measured at all wavelengths within 5 min on a microplate luminometer reader (SpectraMax M5, Molecular Devices, CA, USA).
Accuracy of the assay was measured in healthy human serum samples spiked with standard peptide and a serum sample with a known high PRO-C9 concentration and calculated as the percentage recovery of the measured value and the expected concentration of the peptide or the serum sample with high PRO-C9 plus the concentration of the analyte in serum. […] Recovery percentage was calculated with the normal serum sample as reference. […] The interference was calculated as the percentage recovery of the analyte in non-spiked serum. […]

[2] = molecular target: T1, elongated peptide QRAFNKGPDPG; assay: competitive CLIA, signal inhibition by two-fold diluted peptide
Protocol: (§2) The development of the competitive chemiluminescence immunoassay (CLIA) included several preliminary optimizing experiments where reagents, concentrations, incubation-time and -temperature were analysed by several tests. The PRO-C9 competitive ELISA procedure was as follows: A 96-well streptavidin-coated white microplate (Greiner Bio-One, Kremsminster, Austria) was coated with 5 ng/mL biotinylated synthetic peptide (Biotin-[…] SEQ ID No. 18) dissolved in assay buffer (10 mM phosphate buffered saline (PBS), 1% bovine serum albumin, 0.1% Tween-20, 0.36% Bronidox, 4 g/L NaCl, adjusted to pH 7.4 at 20° C.) and incubated for 30 min at 20° C. with constant shaking (300 rpm) in darkness.
as §1, with “The chemiluminescence substrate (Roche, BM Chemiluminescence ELISA substrate (POD), Basel, Switzerland) working solutions were mixed 15 min before use and 100 μL/well were added to plate and incubated for 3 min at 20° C. with constant shaking (300 rpm) in darkness.” left out
(§3) Two-fold dilutions of four human serum samples were used to assess linearity. Linearity was calculated as a percentage of recovery of the undiluted sample. […]

[3] = molecular target: T2, truncated peptide QRAFNKGPD; assay: as above
Protocol: as §2
as §1, with “The chemiluminescence substrate (Roche, BM Chemiluminescence ELISA substrate (POD), Basel, Switzerland) working solutions were mixed 15 min before use and 100 μL/well were added to plate and incubated for 3 min at 20° C. with constant shaking (300 rpm) in darkness.” left out
as §3

[4] = molecular target: T3, non-sense coating and standard peptide …; assay: competitive CLIA, non-sense peptide tested as free standard and as coater
Protocol: as §2
as §1, with “The chemiluminescence substrate (Roche, BM Chemiluminescence ELISA substrate (POD), Basel, Switzerland) working solutions were mixed 15 min before use and 100 μL/well were added to plate and incubated for 3 min at 20° C. with constant shaking (300 rpm) in darkness.” left out
as §3

[5] = molecular target: B1; assay: ELISA screening of hybridoma clones
Protocol: An indirect ELISA performed on streptavidin-coated plates was used for the screening of supernatant reactivity. Biotin-[…] was used as screening peptide, while the standard peptide […] was used to further test the specificity of the clones. Supernatant was collected from the hybridoma cells and purified using HiTrap affinity columns (GEHealthcare Life Science, Little Chalfront, Buckinghamshire, UK) according to manufacturer instructions and antibody isotype was determined using Rapid ELISA Mouse monoclonal antibody Isotyping Kit (Invitrogen, Carlsbad, CA, USA) following the manufacturer's protocol.

| Binder | IC50 [1] [ng/mL] | binding result [2] | binding result [3] | binding result [4] | binding result [5] |
| --- | --- | --- | --- | --- | --- |
| B1 | 3.62 | – | – | – | – |
| B2 | – | no binding | no binding | no binding | binds |
